Results: patent publication US20210393523A1, “AROMATIC RING SUBSTITUTED AMPHIPHILIC POLYMERS AS DRUG DELIVERY SYSTEMS” (Avldea Technologies, Inc., priority 2018, published 2021)
Square brackets hold non-standard residues; d marks the D form. Ends that are not written are not given here. N3‑DBCO = triazole linker from reaction of an azide with DBCO; Lys(N3) = [N-]=[N+]=NCCCC[C@H](N)C(=O)O; Phe(4-NH2) = Nc1ccc(C[C@H](N)C(=O)O)cc1

Assays:
[1] = Particle size and stability by dynamic light scattering; type: physicochemical; conditions: Table 2; S-[B]-H particles
MC38 tumor cells = assay: Regression of established MC38 tumors after intratumoral treatment; type: in vivo, C57BL/6 mice; conditions: intratumoral days 11 and 17, 10 and 50 nmol
Description: Tumors were measured by digital callipers for the longest dimension (‘length’) and the distance perpendicular to the length (‘width’), and volume estimated by the formula: <volume=width×width×length/2>. Data are reported as mean±s.e.m in FIGS. 3-5. Tumor regression is noted as soon as 1 day following 50 nmol dose of each S-B-H carrier of TLR-7/8a.

[2] = Particle size and stability by dynamic light scattering; type: physicochemical; conditions: Table 3; peptide-based linear C-B-H; PBS pH 7.4, 0.5 mg/mL
Description: To evaluate particle size and stability, 10 μL of the resulting mixture was diluted with 190 μL PBS, pH 7.4 and the resulting solution was evaluated for turbidity and by dynamic light scattering (DLS).
This reaction scheme was used to prepare different compositions of amphiphilic block copolymers that were characterized for the capacity to form stable nanoparticle micelles in aqueous buffer, PBS pH 7.4, at a concentration of 0.5 mg/mL of amphiphilic block copolymer.
A series of linear amphiphilic block copolymers of formula C-B-H, wherein the charged molecule (C) and spacer (B) comprises peptides, i.e., poly(lysine) and poly(serine-co-glycine), respectively, with varying hydrophobic polymer composition were evaluated for particle size and stability by dynamic light scattering.

Row | Substance | Size (diameter, nm) [2] [nm] | further results
1 | EEEEE-(N3-DBCO)-WWWWW (EEEEE[N3‑DBCO]WWWWW) [Compound 23] |  | Particle size (Diameter, nm) [1]: 54.09 nm
2 | K7(SG)12×—(N3-DBCO)-Ahx-(F′)20 [Compound 84] |  | Regression of established tumors (MC38 tumor cells; FIG. 4, nanoparticles associated with 2BXy (1 to 4 molar ratio) or covalently linked to 2BXy): promote regression of established tumors
3 | KKK-SGSGSGSGSGSGSGSGSGSGSGSG-(Lys(N3-DBCO))-Ahx-(F′)5: peptide-based linear amphiphilic block copolymer (KKKSGSGSGSGSGSGSGSGSGSGSGSGK[Phe(4-NH2)][Phe(4-NH2)][Phe(4-NH2)][Phe(4-NH2)][Phe(4-NH2)]; not fully specified (residue 28); printed as KKK-SGSGSGSGSGSGSGSGSGSGSGSG-(Lys(N3-DBCO))-Ahx-(F′)5; also: Lys joined to F′ block via N3-DBCO-Ahx linkage) | 1013 | 
4 | KKK-SGSGSGSGSGSGSGSGSGSGSGSG-(Lys(N3-DBCO))-Ahx-(F′)10: peptide-based linear amphiphilic block copolymer (KKKSGSGSGSGSGSGSGSGSGSGSGSGK[Phe(4-NH2)][Phe(4-NH2)][Phe(4-NH2)][Phe(4-NH2)][Phe(4-NH2)][Phe(4-NH2)][Phe(4-NH2)][Phe(4-NH2)][Phe(4-NH2)][Phe(4-NH2)]; not fully specified (residue 28); printed as KKK-SGSGSGSGSGSGSGSGSGSGSGSG-(Lys(N3-DBCO))-Ahx-(F′)10; also: Lys joined to F′ block via N3-DBCO-Ahx linkage) | 3839 | 
5 | KKK-SLVRX-(N3-DBCO)-WWWWW (KKKSLVR[Lys(N3)]WWWWW; not fully specified (residue 8); printed as KKK-SLVRX-(N3-DBCO)-WWWWW; also: azidolysine joined to Trp block via N3-DBCO linkage) [Compound 22] |  | Particle size (Diameter, nm) [1]: 64.73 nm
6 | KKKKKKK-SGSGSGSGSGSGSGSGSGSGSGSG-(Lys(N3-DBCO))-Ahx-(F′)5: peptide-based linear amphiphilic block copolymer (KKKKKKKSGSGSGSGSGSGSGSGSGSGSGSGK[Phe(4-NH2)][Phe(4-NH2)][Phe(4-NH2)][Phe(4-NH2)][Phe(4-NH2)]; not fully specified (residue 32); printed as KKKKKKK-SGSGSGSGSGSGSGSGSGSGSGSG-(Lys(N3-DBCO))-Ahx-(F′)5; also: Lys joined to F′ block via N3-DBCO-Ahx linkage) | 477 | 
7 | KKKKKKK-SGSGSGSGSGSGSGSGSGSGSGSG-(Lys(N3-DBCO))-Ahx-(F′)20: peptide-based linear amphiphilic block copolymer (KKKKKKKSGSGSGSGSGSGSGSGSGSGSGSGK[Phe(4-NH2)][Phe(4-NH2)][Phe(4-NH2)][Phe(4-NH2)][Phe(4-NH2)][Phe(4-NH2)][Phe(4-NH2)][Phe(4-NH2)][Phe(4-NH2)][Phe(4-NH2)][Phe(4-NH2)][Phe(4-NH2)][Phe(4-NH2)][Phe(4-NH2)][Phe(4-NH2)][Phe(4-NH2)][Phe(4-NH2)][Phe(4-NH2)][Phe(4-NH2)][Phe(4-NH2)]; not fully specified (residue 32); also: Lys joined to F′ block via N3-DBCO-Ahx linkage) | 32 | 
8 | {OH-PEG24}4-{propargyl}4K2K{Lys(N3)}-DBCO-Ahx-(F′)10 [Compound 80] |  | Regression of established tumors (MC38 tumor cells; FIG. 5, nanoparticles admixed with 2BXy and Doxorubicin at 1 to 4 to 4 molar ratio): promote regression of established tumors
